PMC8412382

Molecular target: bovine albumin (BSA) (bovine, UniProt P02769 25-607)
Experiment: SPR

Chain of bovine albumin (BSA) (P02769 25-607): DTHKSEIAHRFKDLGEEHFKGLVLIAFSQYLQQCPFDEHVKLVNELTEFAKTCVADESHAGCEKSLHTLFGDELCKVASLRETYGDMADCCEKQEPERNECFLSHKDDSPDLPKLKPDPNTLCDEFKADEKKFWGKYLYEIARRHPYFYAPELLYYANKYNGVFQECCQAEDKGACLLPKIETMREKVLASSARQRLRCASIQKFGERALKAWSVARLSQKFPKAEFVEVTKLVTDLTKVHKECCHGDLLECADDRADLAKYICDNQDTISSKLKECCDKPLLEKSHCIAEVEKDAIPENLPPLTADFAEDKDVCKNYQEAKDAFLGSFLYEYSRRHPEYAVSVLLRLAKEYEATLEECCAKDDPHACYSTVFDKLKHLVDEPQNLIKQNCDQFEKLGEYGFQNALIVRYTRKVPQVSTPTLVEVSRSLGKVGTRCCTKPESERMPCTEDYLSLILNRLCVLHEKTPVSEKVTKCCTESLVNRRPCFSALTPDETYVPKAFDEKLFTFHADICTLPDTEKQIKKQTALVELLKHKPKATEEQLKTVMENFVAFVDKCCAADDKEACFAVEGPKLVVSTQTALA

B1: N58 aptamer (SARS-CoV-2-N58) (ssDNA)
DNA: GCTGGATGTCACCGGATTGTCGGACATCGGATTGTCTGAGTCATATGACACATCCAGC
binding result: no binding
